This is an account of results in the DeepSol protein solubility set.

This data set in a line: soluble on expression in E. coli; label from the status in PepcDB or PDB records.
For the sequence “MAHHHHHHMSENLDRYDAYRLFCISAAAVNGDEDELQDRLGIVEEYLTEYEGLCRAFHKAQRTTHAQEIRRLLADEAEERRFLKEDADSLPWKLFINMSFACAQELVVEHERKMRQGIVAAYTASFTELLFPYETLQRMRLTWEALDSLALKACIVGRYGVREGQLARTSIPGYTAGSTFPPSARAAAAADAVRSLLAEEHQERQEMIEARGQHVAAALLILASSEKFRSFASASVCGMGFLPQLRNNLASTARQALDNSATRIQSAYRGYRVRAVRARS”, the “soluble on expression in E. coli” value is listed as “not soluble”.

Consider “MAHHHHHHMSFCDFVVVTNNSVEIFKISFDNLIITPIKKHFIKSKHCWYDEKSSYICLLSANKSNVILPYLLSNNNVIKLSKIELNILKNDNINKNDIEIITLYNETYCIHKDFKNGRISFRCLSSTIYFDYVLDLFYNGVIETFSLDNLFGVFNHTNQYVYLFDIKYNKKKTTIHSFDDNNNHTINISYLTTPKQFKTQINFNHMAFEPYNLLIDNHYGNVYKVKVDYDVLMLQICQHFSNLVRT”, for which the “soluble on expression in E. coli” value is recorded as “soluble”.

On to “MAHHHHHHMSGRAGRRGLDRVGVVIAMVDEAVEPETLKQLTGGGADVLNSSFHLTYNMVLNLLRVEDVDPEFMMHRSFAQFQRLRNRPVLEKRAEALTEEIESIHVEHEEVFRQFTLCQELLANRRKQLADILKQPTFLKRFTHSGRLLRIRRAADDVLFNWGICRAFHAKVPNADPKSPSEFSVDVAVICLKANAAKPTSLLPCHVNDFTTSTADLYTLTFDFTDIEGVARFRVNLPAEPDTESGRAQMVQTLSKLHRQYDDKVPLLTAEEMGVDDPQFEKLRVQVERLEAQLAENEFVQNPTKELESDFERFTHRAKLEKELNDIREELNQASRAIFSEELKQMMRVLRRLDYIDKDNVILRKARVACEITTTDENEILLTELLFKGVLNSMETEMIVALMSCLVNVHRTPDGFSLPEEFQQPLKELNEIVSRIATVSIESGVLQEGGVGVERTMPSLMEVTYMWAKGAKFVDIMSKTSAYEGEIVRMMRRLEEQLRQMAGAARSPAIGSMELHDKFLKGIQLIKRDIVFVSSLYL”, for which the “soluble on expression in E. coli” value was “not soluble”.

In the case of “MAHHHHHHMSHIYDMLGINVEKLKTKKKQKEKISKKQLNFLKDNDNLFSLPTTSKIISLNNKNVSVWRLVKFRSKCRNDDLILTKWSKIGYKNDKKEFNEDKIEDDNTFEKFNKKINIIKYNDDLYYREIQPLNTGWTKEETDYLFNLCEKYDCHFIIVNDVYDIKYKRTIEEIKERFYTVTKKVMEDKFDQQIKLEEAKKIKNNNDILKLKEAKAKHPLIKFTYNMQADLERKNIIHKTYTVSKKDVMLEETTLENIKKFESKIKLELKKAADMKKLKKKFELTTEEIVPITKLPEEDKEAKNIYSARYYFQKLKIDISYFDKLDIYLKENNIEKPTIYTENICFLYGVLRTDVAILLNLRKKIEKLKQEREFWKGQMNNLEEEYLKKQQKT”, the “soluble on expression in E. coli” value is recorded as “not soluble”.

“MAHHHHHHMSISVRIRTPKSSTPEQVELNSSGTWGEAAVLLSRKSEVALERLRVLAGFPPKAVDLAADSPLSALKLRANDMLIVQEGEAKVQLGNTGERYVPPAPERAHLTRRRCPADNSCLFHACAYVLRDKSRTEGPQLRQECVQAVLDHPEMFNVNTLGMDPLAYASWLSQKDTWGGAIELEILSFLYKTEMFALDLQSVTVQRFGTGLGYTVRAFLVYTGNHYDCIAMNPVYNSASEREDQTLFSSRDENVLVRAKRFVAEEGQKMKEGKAT”: the “soluble on expression in E. coli” value is “soluble”.

For “MAHHHHHHMSKEKLAKEKIEKGQHYEAHQLIKSLINRKLQKNQVSSCMSIIFYFSQKMAKAEQYVLLCDLMYQCCTILTQHNIKFSEEYAKKIIEIFNLCPPNSTEEKYKFMNKCILWSTNDDEIFGYLDFHKAIAYAYFEDKKYSLAHNHFIYLEDNEILYKIICLWQKEGYPSESDFFILRTTLCLLVLDKFEQALDLINKFEPNLDRKDVPLPVQIAYLITCSCIYRSAPLYEDVKYKYRLILNYDPDFQKYIGILDDVLFNKRKHDLFSMFQNIFG”, the “soluble on expression in E. coli” value is “not soluble”.

On to “MAHHHHHHMSLPASHTTTPATASPEVLLAACTAEVQQLRDALHEVTLRERDGCSGSRGGTGGVAGGALGDVWEGKYLAMIRKNRDLTVQLGTTQQQLAAAQKALQAEQEKTQRLVAAVTVSSLGARGAKAGSKSAAGAAGVDDGCNSNSGSKSGGGSSGSEGAAAASSAAVARVYDKLHQKQLAMAEVQRENVALRSLIQREVGLRDDTKEVNRLLRRATAVSSNGGSAAAAAGGTSASGADGGGWRGRAEEIVLLKSKLKDAQREVEEMAAAQSSSENGTDACTDPLSLPASVRAFLGASGDPAAEARSVVTTTTAQVRRPRRDVDDDARDRLSAMQQQRAAQQRQLAADLAELQQQLNEERMRSSALQARTKTMKSELDTLRSYVDTILEKSSTDDELVEAYKTELQRAHEEARHWRRVAADALKEAGGGKTSAALTVSGVHNGLNNAAAAAVRTAPYRKAAGDEKAVAAGGGDAGNVRGAPLPLPPPQPLTSFSRSLYEWVCQACDEVPEGKEQERTEPAVAASAKQLAAVLRQAFQHLVLVEQHTVAGNDMGHASTDSASSESILLKENAALKTRIRALSELMEKELQAQRVLWATAAAGAGATPSTETKERERQQ”, for which the “soluble on expression in E. coli” value is “not soluble”.

For the sequence “MAHHHHHHMSLTDIEEAETVELLSEDSCSTMSASSEDVGATTVDTSLPLTANATEEQLRRRMLHECACIPELRPQPAWLEESGAAGDGPSASTTEMNWDVAHADHLVVAVRWRVAPTSPGTGCPSLHTTPWVPYAVPLAKVIASRTMAATDTASTVTSTTSSSGGGSSATVQPLGSVQLPLGRSMFLLAAQRSSLVPRAWDSGVAAESLVNVAASISRAQCTLHLHYAAAKTPQAPSSLRTRPVCRSFDVFAISPTTALLGIALQPHQRYHIKRKRGTGKSAHASEDQPCDANGVLTLRVGPYCHVDVALDELPSEPRVSGSAGTCPSITINTYNGRHAHTTRSGQTQDSPAVHRTSACRSGVAREPPAAAMQLQHGSTASLITGDSTAVLATLSEMSDHVALSETSGHEHDGPVVAGSQEVAAAPSHTSITGSLKRRRPAAARGRAAEAVVRRVGNAEAAEGGDVDEADAAVSHSVTTTPSEIVLFTTGMRLSDAEEKTLKELGALVNPHLRLARYARVLAAQRPLVRSVKLLTVLPYVQDVVHQSWLDAVLRTRSLDLPLEGFAYKERKLAGSIESENSFDLRETMRKAPTERQRLFAQQHFWVHKSATPQEPPMNDLKTVVAASGGIITRCVLDADVLVLPKHKPTLSCWRGIAQQLGGTGRASTSSASASTTPTLAQRKQAGVLFVVPDDIFKCVLQQRRLSASSVTLPWQLLTEAAAARGTTGAARVGRRPSQPTRKTPRASTTQRSPRRKSCKRSQ”, the “soluble on expression in E. coli” value was “soluble”.

With “MAHHHHHHMSPVLVPTACEDWSLNIDDESAKRFWWNNTYSITLWEETLNIEQQAEKITDGDVWSKFIDLQLRCAFKICSICHSPEGNADMKICCYCGNTVHENCSEPAAPEQIMWKPANLAYVEHMRACFQCQAVNYKEPL”, the “soluble on expression in E. coli” value is listed as “not soluble”.

With “MAHHHHHHMSPYEYLFKYIIIGDTGVGKSCLLLQFTDKRFRADHDLTIGVEFGARLINLDNKQIKLQIWDTAGQESFRSITRSYYRGAAGALLVYDITRRETFNHLNRWLDEVRQNSNPHMAIILVGNKCDLERREVSAEEGAQFARQNGLIFLETSAKTAKNVEEAFLYTARKIYDNILEDVYDLSNESYGIKYGPNSQYSRVKLDIPSMPESRSGFSCC”, the “soluble on expression in E. coli” value is reported as “soluble”.

For “MAHHHHHHMSSDDECPELISARVPVTVLTGFLGSGKTTLLHYILSADHDMRIAVIVNEFEFGKTIEKGLTLKSSEKPDDEWLELNNGCMCCTAQTQTVKALESLMEHRGTFDLILVETSGLADPGPIAAMFWQDLPLCGHLYLSGIVTLVDAVNICRYLDDEDVMREAERQILMADKVVLNKCDIATEAQQKAALAAVREINPVATVIPSDHSRVPNLRDILFIDTTRAATELVHLHEHHHSSISAVSLEFFEAERAFAVSSYRDVHAIGSDLLYRCGDYGFEVVRCKAAIWCCEDGQYRLLQLQSIGDLFDVTPMVGQSVPFGCTRALVLGKQLDEVKLRDIFAKYLKATK”, the “soluble on expression in E. coli” value was “not soluble”.

Regarding “MAHHHHHHMSSIKINKDESKRVHIWIKSAIGTPNRRQFKHKNIMYPYFRMYKSPYRARDSRTRQAFWPCVDKYPWHTHQKRWVDIEQLNLKFFSEFTNKDPSRKNLFETCHTLPFNGINCLFWNPIYLNSHKFFLKKNKKDANRGEDNNMEENDDVKENTIEGNDDVKEHAIEGYTNNNVNNHNDIINQYDENKKVIKINDFHYIVDKDVKNNTYFYLKYIKYSMRPFRGKLIGDIYLNQTKIRHNISAKGFVNGEWKYSYPHININKKIEHISLNNNLTSNDIYSNNINNLVIVDKYTYRPPLPKSYIFQKDIL”, the “soluble on expression in E. coli” value is reported as “not soluble”.

With “MAHHHHHHMSTSRPAAVLHAASDDEKEDDPMAVLWQHERHVLVLTRAGKPIFSQHGHEEQLSPLCALLQVLLCIHEDKGGGDEQSRGPSQPAPRSDGTASSAAVKDELHQVVYYRSKSASGQACHQGDVNAQVQALTLFFYVQGDLIYLMSVRSVAPSLPAGAVEMSNAEGECEPPPLASYCLAQLRHVHHCILLVLPTVNTLLTRSPGLDVMAMYTSADRAALRELIESYQTELTYAVGAVATLALSVEKRRVVERALLCCYRSCADAAVGPPAHQLFSFLYFKNYLVAAVGPPETYAADPKVSVSAPLALGPDTALCGCLHVDDALLLYRYARSLVSRQLGEAWVPVCLPRFNSTGYLWCYAVNFTRYARELRKQQGKTEWPKVWEEHTELDIMLLHVSASQDDFAALSRSTRRFAQILCAPAVEDNFYYRLEEELYYRTPAPLTELLPSSHTSVSTCSSRDLSGYTDGVPVVVWRGHSRQ”, the “soluble on expression in E. coli” value was “not soluble”.

For “MAHHHHHHMSTYANSQARLNRVAPQLRPAGVHGDWTEATMAELLSSYNPNGIITPDHIRSFHHRGCDVGEQRRHWGLAKDAPVDPNMRHGVKGKETGGADACLRPEMYADKMTALLDAQLESQYLSNRRKPLGHAPVPRDPVPVPFGGFGITQKKGDSTQSVLAGYRSVDVLHPAGEQLTRNYDWEKAGIDPTQHRFGKPSARSDGTTAAALFNDSATQLTSKLAKDYETTVAKELGKSKRYGFDDPAEWDEEKRGSVTKFGATGTAASYFQTEQPTVRELLSSWAQTASGPRADKAASGKAGQQGLTGSADSAVTAKADASAAAPVASGPSLTEPLKDEARAHQLLYPCHYVSLGVESKYFAGGRPLEDIRRLCHKCSFGLSDADIDAVFVLVAKGGSTCSIEEFKNAARARGYM”, the “soluble on expression in E. coli” value is “not soluble”.

“MAHHHHHHMSVCARALWQRSRLLCRCLIMCPTPLSTARWRAGHGWLSRKRGDAEAPPSRERRRHPHANTRHSHAHMMALTLDPRWNAMRRGIAGIGVCAVDGRGGAAAPGSCRLSLCSCLSPASSGGCGGADSALSEGGHCRECVCGMRGRLPSPKKPWNSLAGVLVGVRVTHAASVLEDRPVALGRLVSRLSEAAYKAEMLRTGKRDRDGEDRRGDAAQLLVVDAGTRVTVRTEGDPASGAAVAPSAMHMKGTIAKVNGNATYIILMEKGEVELSVASERIVALQPRKKLFQSARLVALV”: the “soluble on expression in E. coli” value is “soluble”.

Turning to “MAHHHHHHMTERSPALVPAVSLLREELQLLNGVVEGQARSRVYRHHIFFRKASFLRSALRNALPQFARRAADPTDLRTVAGRLLTLTIRCAESATLELSASHIDTVSVALLLLAITSRIGCVLCVVLGRKPETFGKLHFIGSKFGVKYKRSRSEAELAEETIGVATPIRRRTIGGVIEAVIK”, the “soluble on expression in E. coli” value is on record as “not soluble”.
